In paper PMC12207459, “A self-assembling surface layer flattens the cytokinetic furrow to aid cell division in an archaeon” (Proceedings of the National Academy of Sciences of the …, 2025):

Target: the molecule itself
Assay: cryo-EM imaging of cells; unlabeled purified S-layer proteins added to live Vps4 E209Q ΔslaA cells, 75 °C, 1 h; lattice seen on the cell surface by cryo-EM

B1: purified SlaA from wild-type S. acidocaldarius, unlabeled (natural protein, Sulfolobus acidocaldarius, UniProt Q4J6E5 25-1424, looked up)
chain: ITTTALTPPVSAGGIQAYLLTGSGAPASGLVLFVVNVSNIQVSSSNVTNVISTVVSNIQINAKTENAQTGATTGSVTVRFPTSGYNAYYDSVDKVVFVVVSFLYPYTTTSVNIPLSYLSKYLPGLLTAQPYDETGAQVTSVSSTPFGSLIDTSTGQQILGTNPVLTSYNSYTTQANTNMQEGVVSGTLTSFTLGGQSFSGSTVPVILYAPFIFSNSPYQAGLYNPMQVNGNLGSLSSEAYYHPVIWGRALINTTLIDTYASGSVPFTFQLNYSVPGPLTINMAQLAWIASINNLPTSFTYLSYKFSNGYESFLGIISNSTQLTAGALTINPSGNFTINGKKFYVYLLVVGSTNSTTPVEYVTKLVVEYPSSTNFLPQGVTVTTSSNKYTLPVYEIGGPAGTTITLTGNWYSTPYTVQITVGSTPTLTNYVSQILLKAVAYEGINVSTTQSPYYSTAILSTPPSEISITGSSTITAQGKLTATSASATVNLLTNATLTYENIPLTQYSFNGIIVTPGYAAINGTTAMAYVIGALYNKTSDYVLSFAGSQEPMQVMNNNLTEVTTLAPFGLTLLAPSVPATETGTSPLQLEFFTVPSTSYIALVDFGLWGNLTSVTVSAYDTVNNKLSVNLGYFYGIVIPPSISTAPYNYQNFICPNNYVTVTIYDPDAVLDPYPSGSFTTSSLPLKYGNMNITGAVIFPGSSVYNPSGVFGYSNFNKGAAVTTFTYTAQSGPFSPVALTGNTNYLSQYADNNPTDNYYFIQTVNGMPVLMGGLSIVASPVSASLPSSTSSPGFMYLLPSAAQVPSPLPGMATPNYNLNIYITYKIDGATVGNNMINGLYVASQNTLIYVVPNGSFVGSNIKLTYTTTDYAVLHYFYSTGQYKVFKTVSVPNVTANLYFPSSTTPLYQLSVPLYLSEPYYGSPLPTYIGLGTNGTSLWNSPNYVLFGVSAVQQYLGFIKSISVTLSNGTTVVIPLTTSNMQTLFPQLVGQELQACNGTFQFGISITGLEKLLNLNVQQLNNSILSVTYHDYVTGETLTATTKLVALSTLSLVAKGAGVVEFLLTAYPYTGNITFAPPWFIAENVVKQPFMTYSDLQFAKTNPSAILSLSTVNITVVGLGGKASVYYNSTSGQTVITNIYGQTVATLSGNVLPTLTELAAGNGTFTGSLQFTIVPNNTVVQIPSSLTKTSFAVYTNGSLAIVLNGKAYSLGPAGLFLLPFVTYTGSAIGANATAIITVSDGVGTSTTQVPITAENFTPIRLAPFQVPAQVPLPNAPKLKYEYNGSIVITPQQQVLKIYVTSILPYPQEFQIQAFVYEASQFNVHTGSPTAAPVYFSYSAVRAYPALGIGTSVPNLLVYVQLQGISNLPAGKYVIVLSAVPFAGGPVLSEYPAQLIFTNVTLTQ
modifications: highly glycosylated
notes: S-layer protein SlaA of Sulfolobus acidocaldarius, locus saci2355, extracted from the S-layer of wild-type cells; Same preparation as m1 without the dye; it may also contain SlaB; also called unlabeled exogenous S-layer proteins; soluble S-layer proteins
B1: binds.
